Experimental data reported in PMC7060239 (2020).
Blank lines part the entries; values can stand above or below the binder they belong to.

Assays:
[1] = target: T1, human DNMT1 RFTS domain, residues 351–600 (human, UniProt P26358 351-600); test: ITC
T1 chain: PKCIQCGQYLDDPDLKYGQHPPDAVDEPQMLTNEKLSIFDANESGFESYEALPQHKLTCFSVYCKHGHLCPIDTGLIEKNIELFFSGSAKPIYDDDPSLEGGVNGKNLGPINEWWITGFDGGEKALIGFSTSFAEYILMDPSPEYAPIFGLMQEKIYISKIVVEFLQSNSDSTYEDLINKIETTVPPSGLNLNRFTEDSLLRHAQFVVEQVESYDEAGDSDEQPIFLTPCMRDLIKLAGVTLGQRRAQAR

[2] = target: T2, PHD finger of human UHRF1 (residues 299–366) (human, UniProt Q96T88 299-366); test: ITC
T2 chain: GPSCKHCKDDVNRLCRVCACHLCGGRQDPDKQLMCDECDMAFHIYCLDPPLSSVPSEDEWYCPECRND

- Kd [1]: 6 µM
B1: PAF15_(2-30) unmodified (peptide)
chain: VRTKADSVPGTYRKVVAARAPRKVLGSST
modifications: unmodified (no ubiquitin); taken as wild-type K15/K24, since the text describes K15C/K24C only for preparing the ubiquitylated analogs

- Kd [2]: 5.7 µM
Binder: VRTAADSVPG [hPAF15_(2-11)-K5A peptide]
